Experimental data from the supplement of paper PMC9112550, “Optimization of the antimicrobial peptide Bac7 by deep mutational scanning” (BMC Biology, 2022).

System: Escherichia coli TOP10
Experiment: shrunken log2 fold change of peptide-encoding DNA abundance (4.5 h post-induction vs induction); higher = less antimicrobial activity (less host growth inhibition)
Conditions: time post-induction: 4.5 h; library: site-saturation at positions 5, 18, 19, 20
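Note: peptides expressed intracellularly from a pBAD plasmid library in pooled LB shake-flask culture, induced with 0.3% L-arabinose, DNA abundance read by NGS, three biological replicates, DESeq2 with apeglm shrinkage.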

**Q.** For RRIRGRPPRLPRPRPRPGKMPRP, which “shrunken log2 fold change” value is on record?
**A.** 0.224

**Q.** Which “shrunken log2 fold change” value does the source give for RRIRWRPPRLPRPRPRPIYPPRP here?
**A.** -0.0275

**Q.** How did the “shrunken log2 fold change” value turn out when RRIRVRPPRLPRPRPRPCCAPRP was run?
**A.** 0.151

**Q.** For RRIRERPPRLPRPRPRPSRHPRP, which “shrunken log2 fold change” value is on record?
**A.** -0.439

**Q.** How did the “shrunken log2 fold change” value turn out when RRIRFRPPRLPRPRPRPGDTPRP was run?
**A.** -0.309

**Q.** Which “shrunken log2 fold change” value does the source give for RRIRARPPRLPRPRPRPRWSPRP here?
**A.** 0.53

**Q.** RRIRLRPPRLPRPRPRPHVYPRP was tested. Which “shrunken log2 fold change” value did it give?
**A.** -0.211

**Q.** With RRIRLRPPRLPRPRPRPAEEPRP as the sequence, how does the “shrunken log2 fold change” value read?
**A.** 0.133

**Q.** With RRIRYRPPRLPRPRPRPVYDPRP as the sequence, how does the “shrunken log2 fold change” value read?
**A.** -0.112

**Q.** For RRIRDRPPRLPRPRPRPHRLPRP, which “shrunken log2 fold change” value is on record?
**A.** 0.033

**Q.** Which “shrunken log2 fold change” value does the source give for RRIRHRPPRLPRPRPRPGWEPRP here?
**A.** 0.274

**Q.** With RRIRIRPPRLPRPRPRPEQGPRP as the sequence, how does the “shrunken log2 fold change” value read?
**A.** 0.0755

**Q.** Which “shrunken log2 fold change” value does the source give for RRIRFRPPRLPRPRPRPGEHPRP here?
**A.** -0.0294

**Q.** How did the “shrunken log2 fold change” value turn out when RRIRGRPPRLPRPRPRPWPKPRP was run?
**A.** 0.199

**Q.** For RRIRSRPPRLPRPRPRPEHTPRP, which “shrunken log2 fold change” value is on record?
**A.** 0.262

**Q.** RRIRFRPPRLPRPRPRPNSFPRP was tested. Which “shrunken log2 fold change” value did it give?
**A.** -0.894

**Q.** For RRIRHRPPRLPRPRPRPRRTPRP, which “shrunken log2 fold change” value is on record?
**A.** 0.0506

**Q.** Which “shrunken log2 fold change” value does the source give for RRIRLRPPRLPRPRPRPTIKPRP here?
**A.** -0.395

**Q.** Which “shrunken log2 fold change” value does the source give for RRIRSRPPRLPRPRPRPVIYPRP here?
**A.** -0.226

**Q.** With RRIRWRPPRLPRPRPRPIFYPRP as the sequence, how does the “shrunken log2 fold change” value read?
**A.** -0.0652

**Q.** How did the “shrunken log2 fold change” value turn out when RRIRSRPPRLPRPRPRPMIWPRP was run?
**A.** 0.027

**Q.** Which “shrunken log2 fold change” value does the source give for RRIRDRPPRLPRPRPRPAAGPRP here?
**A.** 0.793

**Q.** For RRIRKRPPRLPRPRPRPSFAPRP, which “shrunken log2 fold change” value is on record?
**A.** 0.337

**Q.** Which “shrunken log2 fold change” value does the source give for RRIRPRPPRLPRPRPRPECEPRP here?
**A.** 0.291

**Q.** For RRIRSRPPRLPRPRPRPESNPRP, which “shrunken log2 fold change” value is on record?
**A.** -0.126

**Q.** With RRIRRRPPRLPRPRPRPPMAPRP as the sequence, how does the “shrunken log2 fold change” value read?
**A.** 0.487

**Q.** How did the “shrunken log2 fold change” value turn out when RRIRARPPRLPRPRPRPLQTPRP was run?
**A.** 0.0966

**Q.** How did the “shrunken log2 fold change” value turn out when RRIRKRPPRLPRPRPRPYVQPRP was run?
**A.** -0.332

**Q.** For RRIRRRPPRLPRPRPRPHIDPRP, which “shrunken log2 fold change” value is on record?
**A.** -0.43

**Q.** With RRIRLRPPRLPRPRPRPLNYPRP as the sequence, how does the “shrunken log2 fold change” value read?
**A.** -0.501

**Q.** How did the “shrunken log2 fold change” value turn out when RRIRSRPPRLPRPRPRPSCPPRP was run?
**A.** -0.494

**Q.** For RRIRFRPPRLPRPRPRPSIRPRP, which “shrunken log2 fold change” value is on record?
**A.** -0.288

**Q.** For RRIRFRPPRLPRPRPRPMMLPRP, which “shrunken log2 fold change” value is on record?
**A.** -0.139

**Q.** RRIRIRPPRLPRPRPRPEDKPRP was tested. Which “shrunken log2 fold change” value did it give?
**A.** -0.401

**Q.** For RRIRARPPRLPRPRPRPDKVPRP, which “shrunken log2 fold change” value is on record?
**A.** 0.0597

**Q.** With RRIRSRPPRLPRPRPRPQYSPRP as the sequence, how does the “shrunken log2 fold change” value read?
**A.** -0.165

**Q.** Which “shrunken log2 fold change” value does the source give for RRIRERPPRLPRPRPRPCLTPRP here?
**A.** -0.0208

**Q.** With RRIRYRPPRLPRPRPRPTDAPRP as the sequence, how does the “shrunken log2 fold change” value read?
**A.** -0.0292

**Q.** How did the “shrunken log2 fold change” value turn out when RRIRARPPRLPRPRPRPAQHPRP was run?
**A.** 0.326

**Q.** With RRIRWRPPRLPRPRPRPESQPRP as the sequence, how does the “shrunken log2 fold change” value read?
**A.** 0.185

**Q.** How did the “shrunken log2 fold change” value turn out when RRIRRRPPRLPRPRPRPGYSPRP was run?
**A.** 1.84

**Q.** Which “shrunken log2 fold change” value does the source give for RRIRLRPPRLPRPRPRPCTTPRP here?
**A.** 0.0144

**Q.** How did the “shrunken log2 fold change” value turn out when RRIRPRPPRLPRPRPRPFNVPRP was run?
**A.** -0.0975

**Q.** With RRIRGRPPRLPRPRPRPMNTPRP as the sequence, how does the “shrunken log2 fold change” value read?
**A.** 0.632

**Q.** Which “shrunken log2 fold change” value does the source give for RRIRERPPRLPRPRPRPQSFPRP here?
**A.** -0.0705

**Q.** Which “shrunken log2 fold change” value does the source give for RRIRIRPPRLPRPRPRPIWRPRP here?
**A.** 0.529

**Q.** RRIRSRPPRLPRPRPRPLNGPRP was tested. Which “shrunken log2 fold change” value did it give?
**A.** -0.322

**Q.** For RRIRPRPPRLPRPRPRPKIWPRP, which “shrunken log2 fold change” value is on record?
**A.** 0.407

**Q.** For RRIRMRPPRLPRPRPRPHMVPRP, which “shrunken log2 fold change” value is on record?
**A.** -0.0116

**Q.** With RRIRIRPPRLPRPRPRPKDRPRP as the sequence, how does the “shrunken log2 fold change” value read?
**A.** -0.409

**Q.** With RRIRLRPPRLPRPRPRPFCRPRP as the sequence, how does the “shrunken log2 fold change” value read?
**A.** 0.0702

**Q.** With RRIRGRPPRLPRPRPRPVIKPRP as the sequence, how does the “shrunken log2 fold change” value read?
**A.** 0.0737

**Q.** Which “shrunken log2 fold change” value does the source give for RRIRARPPRLPRPRPRPEVPPRP here?
**A.** 0.162

**Q.** How did the “shrunken log2 fold change” value turn out when RRIRFRPPRLPRPRPRPQDLPRP was run?
**A.** -0.0337

**Q.** How did the “shrunken log2 fold change” value turn out when RRIRRRPPRLPRPRPRPYVSPRP was run?
**A.** -0.00885

**Q.** For RRIRGRPPRLPRPRPRPDELPRP, which “shrunken log2 fold change” value is on record?
**A.** 0.955

**Q.** For RRIRCRPPRLPRPRPRPWPSPRP, which “shrunken log2 fold change” value is on record?
**A.** -0.0603

**Q.** Which “shrunken log2 fold change” value does the source give for RRIRWRPPRLPRPRPRPDGGPRP here?
**A.** -0.0355

**Q.** For RRIRTRPPRLPRPRPRPMDAPRP, which “shrunken log2 fold change” value is on record?
**A.** 0.0575

**Q.** For RRIRTRPPRLPRPRPRPRADPRP, which “shrunken log2 fold change” value is on record?
**A.** 0.158

**Q.** RRIRERPPRLPRPRPRPEGEPRP was tested. Which “shrunken log2 fold change” value did it give?
**A.** 0.332

**Q.** For RRIRCRPPRLPRPRPRPHIFPRP, which “shrunken log2 fold change” value is on record?
**A.** -1.15

**Q.** Which “shrunken log2 fold change” value does the source give for RRIRFRPPRLPRPRPRPSNQPRP here?
**A.** 0.0631

**Q.** With RRIRKRPPRLPRPRPRPYWCPRP as the sequence, how does the “shrunken log2 fold change” value read?
**A.** -0.485

**Q.** How did the “shrunken log2 fold change” value turn out when RRIRARPPRLPRPRPRPRYKPRP was run?
**A.** 0.0679

**Q.** For RRIRCRPPRLPRPRPRPPMFPRP, which “shrunken log2 fold change” value is on record?
**A.** -0.121

**Q.** With RRIRIRPPRLPRPRPRPLCVPRP as the sequence, how does the “shrunken log2 fold change” value read?
**A.** -0.551

**Q.** With RRIRQRPPRLPRPRPRPDFSPRP as the sequence, how does the “shrunken log2 fold change” value read?
**A.** 0.0756

**Q.** RRIRCRPPRLPRPRPRPAQYPRP was tested. Which “shrunken log2 fold change” value did it give?
**A.** -0.467

**Q.** For RRIRSRPPRLPRPRPRPAYNPRP, which “shrunken log2 fold change” value is on record?
**A.** -0.00937

**Q.** RRIRVRPPRLPRPRPRPADFPRP was tested. Which “shrunken log2 fold change” value did it give?
**A.** 0.0696

**Q.** For RRIRARPPRLPRPRPRPWRQPRP, which “shrunken log2 fold change” value is on record?
**A.** 0.0426

**Q.** For RRIRFRPPRLPRPRPRPTWRPRP, which “shrunken log2 fold change” value is on record?
**A.** 0.587

**Q.** RRIRLRPPRLPRPRPRPWHEPRP was tested. Which “shrunken log2 fold change” value did it give?
**A.** 0.0149

**Q.** RRIRTRPPRLPRPRPRPSQTPRP was tested. Which “shrunken log2 fold change” value did it give?
**A.** -0.169
